{
  "source": "patent US20230118517A1",
  "about": "“METHODS OF TREATING MULTIPLE MYELOMA” (Seagen Inc., priority 2020, published 2023)",
  "key": {"[1]": {"experiment": "Antitherapeutic antibody (ATA) assessment in patient serum", "format": "in vivo, human", "settings": "all samples tested", "description": "A qualified electrochemiluminescence assay were used to assess ATA."}, "BCMA on MM1R cells": {"molecular_target": "T1, BCMA on MM1R cells (Homo sapiens, UniProt Q02223)", "T1 construct": "endogenous in cells; host or cells: MM1R cells", "T1 sequence (Q02223 1-184)": "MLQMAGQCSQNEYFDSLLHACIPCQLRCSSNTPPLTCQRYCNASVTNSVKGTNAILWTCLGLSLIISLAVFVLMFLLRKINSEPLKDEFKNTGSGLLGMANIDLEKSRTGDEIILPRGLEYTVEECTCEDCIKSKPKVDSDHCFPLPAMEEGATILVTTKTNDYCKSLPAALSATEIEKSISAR", "experiment": "In vitro cell binding capacity assay (free SEA-BCMA in patient serum)", "format": "cell-based", "settings": "for patients in whom high levels of free SEA-BCMA were maintained throughout the dosing period: Q2wk", "description": "An in vitro cell binding capacity assay was developed to complement serum concentration measurements of total SEA-BCMA, total soluble BCMA, and flow cytometric evaluation of free, unbound BCMA and total BCMA on plasma cells from the bone marrow. The assay measures the ability of free, unbound SEA-BCMA (e.g. not bound by sBCMA) from patient serum to bind and saturate BCMA in-vitro on a BCMA positive cell line. Titrations of known SEA-BCMA concentrations allow for an evaluation of the concentrations of free, unbound SEA-BCMA in patient serum. Together with a measurement of the percent-bound BCMA on the cell surface, this provides a direct indication of the ability of dosed SEA-BCMA to bind and saturate cell membrane-bound BCMA.\nAfter incubation at room temperature for ½ hour, the cells were washed and stained with a saturating amount of SEA-BCMA conjugated to a fluorescent dye. After incubation at 4° C. in the dark for ½ hr, the cells were washed and fixed. Stained cells were analyzed on an Invitrogen Attune NxT flow cytometer. FlowJo V10 software was used to gate on viable cells and record the median fluorescent intensity (MFI). GraphPad Prism 8 was used for analysis.\nThe recorded MFI was normalized as follows. Normalization to 0% binding is the MFI from a control well incubated in healthy human serum with no SEA-BCMA present. Normalization to 100% binding is the MFI from a control well incubated in healthy human serum spiked with SEA-BCMA to a concentration 200 μg/mL. A titration of SEA-BCMA in healthy human serum may be used to generate a standard curve using the known amounts of SEA-BCMA.\nThe maintenance of free SEA-BCMA in the patient serum that are able to bind in vitro to the cell-surface BCMA of a BCMA-expressing cell line was investigated."}, "[2]": {"molecular_target": "T2, membrane BCMA on malignant plasma cells (Homo sapiens, UniProt Q02223)", "T2 construct": "from tissue; host or cells: multiple myeloma cells in patients' bone marrow aspirates", "T2 sequence (Q02223 1-184)": "T1 sequence (Q02223 1-184)", "experiment": "Flow cytometric assessment of BCMA expression and engagement on MM cells in bone marrow", "format": "in vivo", "experimental": "A Flow Cytometric Assay was designed to identify multiple myeloma cells in patients bone marrow aspirate, and measure levels of BCMA (unbound and total) and APRIL on the MM cell surface.\nBone marrow aspirates were collected from enrolled patients at Baseline and on-treatment (C2D22, confirmation of CR, per standard of care), and tested by flow cytometry with one day of collection in most cases.\nMM cells detection was performed using extracellular CD138, CD38, CD45, CD56 and CD28 staining and intracellular kappa and lambda light chains staining. […] Detection of APRIL, most probably bound to BCMA on the MM cell surface, is also performed.\nEach sample was split into 3 aliquots: one aliquot stained using only the MM gating antigens but no anti-BCMA or anti-APRIL antibodies (gating control), one aliquot stained with MM Gating antigens and the two labeled anti-BCMA antibodies, and one incubated for 2 hours at 37 C with spiked BCMA (100 ug/mL) before staining with MM gating antigens+APRIL+labeled non-competing anti-BCMA 16.16 antibody. After staining, washing and fixation in 2% paraformaldyde, cells were analyzed on a BD FACScanto cytometer, with up to 2×10^6 leukocytes acquired. Data analysis was performed with FACS Diva (Q2) and FlowJo (Seattle Genetics)."}, "MOLP-8 luciferase cells": {"test_system": "MOLP-8 luciferase cells", "experiment": "Disseminated MM mouse tumor xenograft (luminescence)", "format": "in vivo, SCID mice", "settings": "SEA-BCMA 3 mg/kg once IP combined with daratumumab 1 mg/kg weekly 5x, N=5", "experimental": "Experiments were performed to test whether SEA-BCMA can combine effectively with daratumumab in a disseminated MM mouse tumor xenograft. MOLP-8 luciferase cells were injected IV into SCID animals and allowed to home to the bone marrow. Molp-8 cells express 2000 copies of BCMA and 323,000 copies of CD38 (daratumumab target). When sufficient luminescence was observed, animals were dosed once IP with SEA-BCMA, or SEA non targeted control at 3 mg/kg. Daratumumab was dosed weekly 5× at 1 mg/kg. Median luminescence plotted, N=5. The combination of SEA-BCMA and daratumumab yielded complete remissions in 4 of 5 animals."}, "[3]": {"test_system": "MM1R myeloma target cells", "experiment": "PBMC-mediated MM1R target cell killing, second experiment (PBMC pretreated 5 days, 0.5 μM pomalidomide)", "format": "cell-based", "settings": "combined with Pomalidomide, benchmarked against daratumumab, N=2", "experimental": "Experiments were performed to test whether SEA-BCMA combines effectively with pomalidomide in vitro by combining PBMC effector cells with MM1R target cells treated with both pomalidomide and SEA-BCMA or antibody controls. The first experiment (FIG. 12A) benchmarks against MM standard of care elotuzumab and nonfucosylated parent BCMA antibody. The second experiment (FIG. 12B) benchmarks against MM standard of care daratumumab. MM1R target cells express 15,000 copies of BCMA, 12,000 copies of CS1 (elotuzumab target), and 36,000 copies of CD38 (daratumumab target).\nIn the second experiment (FIG. 12B), normal donor PBMCs of the FcγRIII V/F genotype were treated with or without 0.5 μM pomalidomide (APEx Bio, cat #A4211) for 5 days. The resulting PBMCs were then washed and mixed with CFSE (Invitrogen cat #V12883) labeled MM1R myeloma target cells at an effector-to-target cell ratio of 10:1. The mixture was then treated with a dose range of the following antibodies: SEA-BCMA, daratumumab, or non-binding hIgG1k antibody control (Sigma cat #15154) with or without 0.5 μM pomalidomide (APEx Bio, cat #A4211) and incubated overnight. Percentage live MM1R cells were then determined using the viability dye 7-AAD (BD Biosciences, cat #559925) by flow cytometry."}, "[4]": {"settings": "among 20 total patients treated"}},
  "note": "Several values for one entry are separate records, joined by “and”; a condition that tells them apart may be missing. Equal values may be shown once. Read-outs that look alike come from different tables or passages of the source.",
  "data": [
    {"substance": "SEA-BCMA: non-fucosylated monoclonal anti-BCMA antibody having heavy chain SEQ ID NO: 13 and light chain SEQ ID NO: 15", "values": [
      {"measurement": "anti-SEA-BCMA antibodies", "setting": "[1]", "value": "No anti-SEA-BCMA antibodies were found"},
      {"measurement": "patients in whom high levels of free SEA-BCMA were maintained throughout the dosing period", "setting": "BCMA on MM1R cells; 800 mg (or equivalent)", "value": "6/8 and 6 out of 8"},
      {"measurement": "patients in whom high levels of free SEA-BCMA were maintained throughout the dosing period", "setting": "BCMA on MM1R cells; 1600 mg", "value": "7/7 and all patients"},
      {"measurement": "maintenance of >95% bound BCMA in vitro through the dosing interval", "setting": "BCMA on MM1R cells; serum of patients dosed 100 mg-400 mg, two doses 14 days apart", "value": "not able to maintain >95% bound BCMA in vitro"},
      {"measurement": "saturation of membrane BCMA", "setting": "[2]; 1600 mg", "value": "complete saturation was observed in at least one patient"},
      {"measurement": "unbound membrane BCMA on malignant plasma cells", "setting": "[2]; bone marrow of patients treated in dose escalation", "value": "reduced levels of unbound membrane BCMA"},
      {"measurement": "saturation of membrane BCMA", "setting": "[2]; evaluable patients dosed at 800 mg and 1600 mg", "value": "Incomplete saturation of membrane BCMA"},
      {"measurement": "complete remissions", "setting": "MOLP-8 luciferase cells", "value": "4 of 5"},
      {"measurement": "MM1R target cell killing", "setting": "[3]", "value": "greater MM1R target cell killing"},
      {"measurement": "safety", "setting": "1600 mg per dose once every 2 weeks", "value": "found to be safe"},
      {"measurement": "safety profile", "setting": "20 patients, 100-1600 mg", "value": "well-tolerated with no severe adverse effects"},
      {"measurement": "adverse event", "setting": "Patient A, 1600 mg every two weeks, second cycle", "value": "Grade 2 maculopapular rash"},
      {"measurement": "dose-limiting toxicity (DLT) (Grade 3 infusion-related reactions)", "setting": "[4]", "value": 1, "unit": "case"},
      {"measurement": "total serious infusion-related reactions", "setting": "[4]", "value": 2},
      {"measurement": "safety", "setting": "combination with dexamethasone, SEA-BCMA Day 1 and 15, dexamethasone Day 1, 8, 15, 22 of 28-day cycle", "value": "found to be safe"},
      {"measurement": "delayed-onset infusion-related reactions (IRRs)", "setting": "dose escalation cohort", "value": "no instances of delayed-onset infusion-related reactions"},
      {"measurement": "maximum tolerated dose (MTD)", "setting": "human, in vivo", "value": "completed without exceeding MTD"},
      {"measurement": "safety", "setting": "intensive dosing: 1600 mg q1wk for 8 doses, then once every two weeks", "value": "intensive dosing was safe"},
      {"measurement": "safety and tolerability", "setting": "patient, 200 mg escalated to 1600 mg every two weeks, cycles 1-10", "value": "tolerated the therapy well without any adverse effects related to SEA-BCMA"}
    ]}
  ]
}
